Measured values reported in paper PMC8596991 (Methods in molecular biology (Clifton, N.J.), 2020).
One block for each binder: values may come before it.

Target: T1, Rrp41/Rrp45 heterodimer (S. cerevisiae, UniProt P46948 1-246; Q05636 1-305)
T1 sequence (looked up) 1: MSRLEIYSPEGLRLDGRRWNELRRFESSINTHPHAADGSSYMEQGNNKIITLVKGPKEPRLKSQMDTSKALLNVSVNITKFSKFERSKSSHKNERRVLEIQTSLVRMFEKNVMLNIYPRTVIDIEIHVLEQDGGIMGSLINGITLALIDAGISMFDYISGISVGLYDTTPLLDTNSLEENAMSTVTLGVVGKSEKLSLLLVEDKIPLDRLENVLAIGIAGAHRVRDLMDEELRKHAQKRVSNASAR
T1 sequence (looked up) 2: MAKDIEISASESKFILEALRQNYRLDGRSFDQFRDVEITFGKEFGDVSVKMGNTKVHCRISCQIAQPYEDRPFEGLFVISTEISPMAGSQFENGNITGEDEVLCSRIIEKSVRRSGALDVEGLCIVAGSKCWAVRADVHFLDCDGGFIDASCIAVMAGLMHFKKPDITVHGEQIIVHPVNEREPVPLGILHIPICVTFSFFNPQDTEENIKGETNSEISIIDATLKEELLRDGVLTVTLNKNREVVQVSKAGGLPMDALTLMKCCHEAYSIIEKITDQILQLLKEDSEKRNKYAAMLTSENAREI
Experiment: SEC

binding result: binds
B1: Rrp4 (natural protein, S. cerevisiae, UniProt P38792 1-359, looked up)
chain: MSEVITITKRNGAFQNSSNLSYNNTGISDDENDEEDIYMHDVNSASKSESDSQIVTPGELVTDDPIWMRGHGTYFLDNMTYSSVAGTVSRVNRLLSVIPLKGRYAPETGDHVVGRIAEVGNKRWKVDIGGKQHAVLMLGSVNLPGGILRRKSESDELQMRSFLKEGDLLNAEVQSLFQDGSASLHTRSLKYGKLRNGMFCQVPSSLIVRAKNHTHNLPGNITVVLGVNGYIWLRKTSQMDLARDTPSANNSSSIKSTGPTGAVSLNPSITRLEEESSWQIYSDENDPSISNNIRQAICRYANVIKALAFCEIGITQQRIVSAYEASMVYSNVGELIEKNVMESIGSDILTAEKMRGNGN

binding result: binds
B2: Csl4 (natural protein, S. cerevisiae, UniProt P53859 1-292, looked up)
chain: MACNFQFPEIAYPGKLICPQYGTENKDGEDIIFNYVPGPGTKLIQYEHNGRTLEAITATLVGTVRCEEEKKTDQEEEREGTDQSTEEEKSVDASPNDVTRRTVKNILVSVLPGTEKGRKTNKYANNDFANNLPKEGDIVLTRVTRLSLQRANVEILAVEDKPSPIDSGIGSNGSGIVAAGGGSGAATFSVSQASSDLGETFRGIIRSQDVRSTDRDRVKVIECFKPGDIVRAQVLSLGDGTNYYLTTARNDLGVVFARAANGAGGLMYATDWQMMTSPVTGATEKRKCAKPF

binding result: binds
B3: Rrp40 (natural protein, S. cerevisiae, UniProt Q08285 1-240, looked up)
chain: MSTFIFPGDSFPVDPTTPVKLGPGIYCDPNTQEIRPVNTGVLHVSAKGKSGVQTAYIDYSSKRYIPSVNDFVIGVIIGTFSDSYKVSLQNFSSSVSLSYMAFPNASKKNRPTLQVGDLVYARVCTAEKELEAEIECFDSTTGRDAGFGILEDGMIIDVNLNFARQLLFNNDFPLLKVLAAHTKFEVAIGLNGKIWVKCEELSNTLACYRTIMECCQKNDTAAFKDIAKRQFKEILTVKEE
